Experimental data: IntAct's records for PubMed 29892012

B1: Zyxin (Homo sapiens), Q15942 (parent)
chain: MAAPRPSPAISVSVSAPAFYAPQKKFGPVVAPKPKVNPFRPGDSEPPPAPGAQRAQMGRVGEIPPPPPEDFPLPPPPLAGDGDDAEGALGGAFPPPPPPIEESFPPAPLEEEIFPSPPPPPEEEGGPEAPIPPPPQPREKVSSIDLEIDSLSSLLDDMTKNDPFKARVSSGYVPPPVATPFSSKSSTKPAAGGTAPLPPWKSPSSSQPLPQVPAPAQSQTQFHVQPQPQPKPQVQLHVQSQTQPVSLANTQPRGPPASSPAPAPKFSPVTPKFTPVASKFSPGAPGGSGSQPNQKLGHPEALSAGTGSPQPPSFTYAQQREKPRVQEKQHPVPPPAQNQNQVRSPGAPGPLTLKEVEELEQLTQQLMQDMEHPQRQNVAVNELCGRCHQPLARAQPAVRALGQLFHIACFTCHQCAQQLQGQQFYSLEGAPYCEGCYTDTLEKCNTCGEPITDRMLRATGKAYHPHCFTCVVCARPLEGTSFIVDQANRPHCVPDYHKQYAPRCSVCSEPIMPEPGRDETVRVVALDKNFHMKCYKCEDCGKPLSIEADDNGCFPLDGHVLCRKCHTARAQT
partner: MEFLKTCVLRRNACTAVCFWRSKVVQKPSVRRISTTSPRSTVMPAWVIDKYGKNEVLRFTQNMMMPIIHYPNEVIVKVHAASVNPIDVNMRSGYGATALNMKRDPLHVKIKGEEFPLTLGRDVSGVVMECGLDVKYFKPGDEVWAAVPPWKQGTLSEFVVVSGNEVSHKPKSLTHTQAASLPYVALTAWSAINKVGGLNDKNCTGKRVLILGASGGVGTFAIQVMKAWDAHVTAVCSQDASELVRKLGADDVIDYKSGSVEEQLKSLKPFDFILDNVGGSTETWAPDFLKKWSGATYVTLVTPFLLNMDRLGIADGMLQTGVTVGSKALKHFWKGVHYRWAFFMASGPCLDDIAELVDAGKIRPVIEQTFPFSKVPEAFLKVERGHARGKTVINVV
B2: Zinc finger protein 786 (Homo sapiens), Q8N393 (parent)
chain: MAEPPRLPLTFEDVAIYFSEQEWQDLEAWQKELYKHVMRSNYETLVSLDDGLPKPELISWIEHGGEPFRKWRESQKSGNIICSSVDMHFDPGFEEQLFWGSQQAMNSGKTKSHFQLDPESQCSFGSFVSFRPDQGITLGSPQRHDARAPPPLACGPSESTLKEGIPGPRNLDLPGLWDVPAWESTQHPWPVCGESCWENNHLVMHQRGHSKDRTRRAWEKFNKRAETQMPWSSPRVQRHFRCGVCGKSFRRKLCLLRHLAAHTGRGPFRNADGEMCFRHELTHPSHRLPQQGEKPAQCTPCGKRSLPVDSTQARRCQHSREGPASWREGRGASSSVHSGQKPGSRLPQEGNSHQEGDTEALQHGAEGPCSCSECGERSPMSARLASPCRAHTGEKPFQCAHCTKRFRLRRLLQVHQHAHGGERPFSCRKCGKGFAKQCKLTEHIRVHSGEKPFRCAKCGRNFRQRGQLLRHQRLHTDEKPFQCPECGLSFRLESMLRAHRLRHGGERPFSCSECGRGFTHQCKLREHLRVHSGERPFQCLKCDKRFRLKGILKAHQHTHSKERPFSCGECGKGFTRQSKLTEHLRVHSGERPFQCPECNRSFRLKGQLLSHQRLHTGERPFQCPECDKRYRVKADMKAHQLLHSGEMPFSCECGKGFVKHSKLIEHIRTHTGEKPFQCPKCDKSFRLKAQLLSHQGLHTGERPFHCPECDKNFRERGHMLRHQRIHRPERPFACGDCGKGFIYKSKLAEHIRVHTKSCPAPNELDIKKRLSQLFAMIEADWS
B3: Coiled-coil alpha-helical rod protein 1 (Homo sapiens), Q8TD31 (parent)
chain: MFPPSGSTGLIPPSHFQARPLSTLPRMAPTWLSDIPLVQPPGHQDVSERRLDTQRPQVTMWERDVSSDRQEPGRRGRSWGLEGSQALSQQAEVIVRQLQELRRLEEEVRLLRETSLQQKMRLEAQAMELEALARAEKAGRAEAEGLRAALAGAEVVRKNLEEGSQRELEEVQRLHQEQLSSLTQAHEEALSSLTSKAEGLEKSLSSLETRRAGEAKELAEAQREAELLRKQLSKTQEDLEAQVTLVENLRKYVGEQVPSEVHSQTWELERQKLLETMQHLQEDRDSLHATAELLQVRVQSLTHILALQEEELTRKVQPSDSLEPEFTRKCQSLLNRWREKVFALMVQLKAQELEHSDSVKQLKGQVASLQEKVTSQSQEQAILQRSLQDKAAEVEVERMGAKGLQLELSRAQEARRRWQQQTASAEEQLRLVVNAVSSSQIWLETTMAKVEGAAAQLPSLNNRLSYAVRKVHTIRGLIARKLALAQLRQESCPLPPPVTDVSLELQQLREERNRLDAELQLSARLIQQEVGRAREQGEAERQQLSKVAQQLEQELQQTQESLASLGLQLEVARQGQQESTEEAASLRQELTQQQELYGQALQEKVAEVETRLREQLSDTERRLNEARREHAKAVVSLRQIQRRAAQEKERSQELRRLQEEARKEEGQRLARRLQELERDKNLMLATLQQEGLLSRYKQQRLLTVLPSLLDKKKSVVSSPRPPECSASAPVAAAVPTRESIKGSLSVLLDDLQDLSEAISKEEAVCQGDNLDRCSSSNPQMSS
partner: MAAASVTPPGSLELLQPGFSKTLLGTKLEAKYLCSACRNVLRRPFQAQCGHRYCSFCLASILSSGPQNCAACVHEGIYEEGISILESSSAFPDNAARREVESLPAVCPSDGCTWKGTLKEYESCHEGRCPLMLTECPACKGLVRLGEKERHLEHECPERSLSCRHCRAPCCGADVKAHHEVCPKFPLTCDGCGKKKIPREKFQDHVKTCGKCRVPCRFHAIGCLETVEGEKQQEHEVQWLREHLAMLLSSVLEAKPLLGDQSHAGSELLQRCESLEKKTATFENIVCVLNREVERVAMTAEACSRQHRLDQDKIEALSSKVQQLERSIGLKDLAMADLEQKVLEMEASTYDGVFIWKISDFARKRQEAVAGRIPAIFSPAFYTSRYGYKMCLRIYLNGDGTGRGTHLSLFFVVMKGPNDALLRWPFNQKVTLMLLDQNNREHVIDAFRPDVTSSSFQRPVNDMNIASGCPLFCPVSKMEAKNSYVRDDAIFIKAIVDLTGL

Variants of: B1
Settings: with rt4i1_human RTN4IP1, Q8WWV3

Variant	effect of a mutation on the interaction
R167G	with no effect

Variants of: B2
Settings: with kr103_human KRTAP10-3, P60369
Sequence of kr103_human KRTAP10-3, P60369 (P60369 whole entry): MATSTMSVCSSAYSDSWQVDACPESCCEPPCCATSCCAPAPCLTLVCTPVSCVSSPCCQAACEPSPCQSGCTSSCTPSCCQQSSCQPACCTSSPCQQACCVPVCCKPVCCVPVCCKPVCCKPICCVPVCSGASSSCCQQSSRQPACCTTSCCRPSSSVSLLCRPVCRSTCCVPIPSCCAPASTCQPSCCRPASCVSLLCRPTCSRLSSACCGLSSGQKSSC

Variant	effect of a mutation on the interaction
S112R	with no effect

Variants of: B2
Settings: with kr103_human KRTAP10-3, P60369
Remark: another data set of the same source

Variant	effect of a mutation on the interaction
V37A	with no effect

Variants of: B3
Settings: with traf2_human TRAF2, Q12933

Variant	effect of a mutation on the interaction
W337R	disrupting interaction strength
